The values below come from PMC5927468.

The target of this test is sorting nexin 9 (SNX9) (UniProt Q9Y5X1). The test is described as follows: anti-eGFP nanobody pulldown, SNX9 immunoblot. The note with it: reference: Dyn1a wild type-eGFP; sites S774,S778. For orientation: Immunoblotting shows a protein as a band on a membrane.

“dynamin-1 (Dyn1a) (from UniProt Q05193) Dyn1a S774/8A-eGFP”: the fold change amounted to 3.6.
